Target: GST-N–ezrin (GST-tagged N-terminal ezrin 1–309 aa) (UniProt P15311)
Experiment: pull-down

Sequence of UniProt P15311 (P15311 1-309): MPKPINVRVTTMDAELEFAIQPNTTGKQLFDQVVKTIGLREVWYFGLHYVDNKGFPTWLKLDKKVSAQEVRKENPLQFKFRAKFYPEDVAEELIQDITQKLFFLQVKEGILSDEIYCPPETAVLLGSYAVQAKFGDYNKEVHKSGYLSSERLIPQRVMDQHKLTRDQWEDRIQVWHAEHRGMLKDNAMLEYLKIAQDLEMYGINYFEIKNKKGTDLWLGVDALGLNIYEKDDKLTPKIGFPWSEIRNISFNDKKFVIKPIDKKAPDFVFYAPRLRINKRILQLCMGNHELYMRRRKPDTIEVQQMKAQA

“His6–thioredoxin fused NHERF2–C109 (domain or fragment)” gave a fold higher ezrin-binding affinity than NHERF1–C127 of 4 to 8 fold.

Source: publication PMC4613507
